Assay results published in patent US20100111941A1, “METHODS FOR TREATING CANCER” (priority 2006, published 2010).

Legend:
[1] = system: HCT116 tumor xenografts (human colorectal cancer cells); conditions: for tumor weight reduced by, compared to vehicle control: day 14, rNAPc2/pro 300 μg/kg daily IP, 5-FU 10 mg/kg every-other-day IP, AVASTIN 0.5 mg/kg twice-weekly IP, 14 days, 6 mice/group
Protocol: To determine the effect of rNAPc2/pro in combination with 5-fluorouracil (5-FU) in colorectal cancer, a murine xenograft colorectal tumor model was used. Human colorectal cancer cells (HCT116) were cultured in DMEM medium supplemented with 10% fetal bovine serum (FBS), harvested at log growth phase, enumerated and resuspended in HBSS buffer. Eight to ten week old female nude mice (NU/NU) were inoculated subcutaneously with 1×10^7 cells/mouse in a volume of 100 μl. Tumors were allowed to develop to an average size of 50 to 100 mm^3 before the treatment started (defined as day 0). HCT116 tumor xenograft-bearing mice were randomized into various treatment conditions and the treatment regimens lasted for 14 days.
The mice were treated as follows (6 mice/group):
2)rNAPc2/pro (300 μg/kg, daily IP injection for 14 days);
3) LOVENOX® (1.5 mg/kg, daily IP injection for 14 days);
4) 5-FU (10 mg/kg, every-other-day IP injection for 14 days);
5) AVASTIN® (0.5 mg/kg, twice-weekly IP injection for 14 days);
10) LOVENOX®+AVASTIN®; and
The mice were monitored every-other-day for body weight, signs of morbidity (i.e., hemorrhage) and mortality. On day 14, mice were extirpated for HCT116 tumor xenografts and the tumors were weighed and measured. Tumor size was calculated as follows: tumor volume (size)=(length)×(width^2)/2 (mm^3).

[2] = system: Human colorectal cancer cells (HCT116); experiment: murine colorectal cancer-hepatic metastasis mouse model (HCT116); type: in vivo, nude mice (NU/NU); conditions: for Hepatic metastasis-free events: rNAPc2/pro 300 μg/kg daily IP for 28 days, CPT-11 100 mg/kg once-weekly IP for 4 weeks, livers removed day 42, 8 mice/group
Protocol: To determine the effect of rNAPc2/pro in treating hepatic tumor metastasis, a murine colorectal cancer-hepatic metastasis mouse model was used.
(§1) The mice were treated as follows (8 mice/group):
2) HCT116/vehicle control;
3) HCT116/rNAPc2/pro (300 μg/kg, daily IP injection for 28 days);
4) HCT116/CPT-11 (100 mg/kg, once-weekly IP injection for 4 weeks); and
On day 42, the livers were surgically removed, weighed and the number of liver surface metastases were counted in a blinded fashion. The other internal organs were examined for signs of hemorrhage. […] In some of the mice, no hepatic metastases were observed (Table 2).

[3] = system: lung carcinoma tumors and melanoma tumors; conditions: mouse models; Hembrough et al., Cancer Res. 63:2997-3000 (2003); cited from earlier work
[4] = molecular target: T1, Factor Xa (Homo sapiens, UniProt P00742); conditions: selective = at least 10-fold higher potency than on related enzymes; cited from earlier work
T1 construct: made in house
T1 sequence (P00742 235-488 limits assumed): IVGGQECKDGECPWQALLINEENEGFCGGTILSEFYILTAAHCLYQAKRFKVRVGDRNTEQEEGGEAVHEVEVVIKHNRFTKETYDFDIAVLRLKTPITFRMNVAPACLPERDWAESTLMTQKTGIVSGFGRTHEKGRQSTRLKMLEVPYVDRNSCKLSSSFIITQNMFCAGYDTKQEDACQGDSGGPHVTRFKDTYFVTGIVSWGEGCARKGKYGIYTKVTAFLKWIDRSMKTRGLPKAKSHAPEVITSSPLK
T1 sequence (P00742 41-179 limits assumed): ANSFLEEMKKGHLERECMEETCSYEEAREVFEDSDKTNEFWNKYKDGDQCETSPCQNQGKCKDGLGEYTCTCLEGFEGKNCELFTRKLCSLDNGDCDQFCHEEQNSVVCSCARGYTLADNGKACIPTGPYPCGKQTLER

[5] = system: angiogenesis; conditions: Hembrough et al., Cancer Res. 63:2997-3000 (2003); cited from earlier work
[6] = molecular target: T2, fVIIa/TF complex (Homo sapiens, UniProt P08709+P13726); conditions: when fXa, or a catalytically active or inactive derivative thereof, is present; cited from earlier work
T2 construct: Lyophilized, purified, recombinant human fVlla is reconstituted in HBS
T2 sequence (P08709 213-466 limits assumed): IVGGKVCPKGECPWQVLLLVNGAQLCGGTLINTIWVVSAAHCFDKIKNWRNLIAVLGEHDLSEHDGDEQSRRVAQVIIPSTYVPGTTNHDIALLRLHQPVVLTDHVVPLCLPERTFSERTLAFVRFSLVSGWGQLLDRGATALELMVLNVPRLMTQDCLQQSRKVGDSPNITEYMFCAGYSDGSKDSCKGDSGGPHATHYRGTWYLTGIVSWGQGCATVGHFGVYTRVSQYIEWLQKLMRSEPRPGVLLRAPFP
T2 sequence (P08709 61-212 limits assumed): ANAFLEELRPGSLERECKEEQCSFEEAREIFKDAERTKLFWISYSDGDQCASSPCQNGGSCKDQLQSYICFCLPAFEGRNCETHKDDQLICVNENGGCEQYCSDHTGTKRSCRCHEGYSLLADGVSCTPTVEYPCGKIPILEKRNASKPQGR
T2 sequence (P13726 33-295): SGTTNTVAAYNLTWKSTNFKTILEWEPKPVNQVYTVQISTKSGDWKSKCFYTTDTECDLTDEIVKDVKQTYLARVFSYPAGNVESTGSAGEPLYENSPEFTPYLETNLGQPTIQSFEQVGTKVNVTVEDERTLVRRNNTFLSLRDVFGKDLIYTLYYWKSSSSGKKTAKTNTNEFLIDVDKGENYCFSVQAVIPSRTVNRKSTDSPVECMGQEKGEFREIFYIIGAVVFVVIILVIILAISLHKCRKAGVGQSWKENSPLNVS
T2 sequence (P00742 235-488 partner limits assumed): as the sequence (P00742 235-488 limits assumed) above
T2 sequence (P00742 41-179 partner limits assumed): as the sequence (P00742 41-179 limits assumed) above

[7] = system: intestinal adenomas and adenocarcinomas; experiment: murine spontaneous intestinal neoplasia mouse model (Min mouse)
Protocol: To determine the effect of rNAPc2/pro in treating intestinal adenomas and adenocarcinomas, a murine spontaneous intestinal neoplasia mouse model was used: the Min mouse (The Jackson Laboratory, Bar Harbor, Me., USA).
Four to five week old Apc^Min/+ or syngenic wild-type control (age- and sex-matched) were randomized into various treatment conditions and the treatment regimens lasted for 10 to 11 weeks.
The mice were treated as follows:
1) Wild-type/vehicle control (3 mice);
2) Wild-type/rNAPc2/pro (100 μg/kg, daily IP injection) (3 mice);
3) Apc^Min/+/vehicle control (6 mice);
4) Apc^Min/+/rNAPc2/pro (6 mice); and
5) Apc^Min/+/LOVENOX® (500 μg/kg, daily IP injection) (6 mice).
The mice were monitored every-other-day for body weight, signs of morbidity (i.e. hemorrhage) and mortality. On week 16, the intestines were removed, separated into proximal, middle and distal small intestine and colon, formed into “Swiss rolls” and processed for analysis. Mice were injected with 4 mg/mouse BrdU 2 h prior to harvest.

[8] = system: Murine colorectal cancer cells (CT26); experiment: murine colorectal cancer-pulmonary metastasis mouse model (CT26); type: in vivo, BALB/c mice; conditions: for Number of mice with no observable lung surface metastases: 8 mice/group
Protocol: To determine the effect of rNAPc2/pro in treating pulmonary tumor metastasis, a murine colorectal cancer-pulmonary metastasis mouse model was used. […] Nine to eleven week old female syngenic BALB/c mice were inoculated via tail vein injection with 1×10^6 cells/mouse in a volume of 100 μl (defined as day 0).
as §1
3) CT26/rNAPc2/pro (10 μg/kg/day);
4) CT26/rNAPc2/pro (30 μg/kg/day);
5) CT26/rNAPc2/pro (100 μg/kg/day);
6) CT26/rNAPc2/pro (300 μg/kg/day);
7) CT26/rNAPc2/pro (1 mg/kg/day);
8) CT26/rNAPc2/pro (2.5 mg/kg/day); and
9) CT26/LOVENOX® (1.5 mg/kg/day, IP injection).
On day 11, the lungs were surgically removed, weighed and the number of lung surface metastases were counted in a blinded fashion. The other internal organs were examined for signs of hemorrhage. […] In some of the mice, no lung surface metastases were observed (Table 1). rNAPc2/pro was well-tolerated up to 2.5 mg/kg/day in mice with no hemorrhage-related mortality. […] No significant difference in animal body weight was observed between all experimental groups.

With `O=c1[nH]cc(F)c(=O)[nH]1` [5-FU, 5-fluorouracil, reference compound] the “tumor weight reduced by, compared to vehicle control” value [1] was 41%.

With `CCc1c2c(nc3ccc(OC(=O)N4CCC(N5CCCCC5)CC4)cc13)-c1cc3c(c(=O)n1C2)COC(=O)[C@]3(O)CC` [CPT-11, irinotecan, reference compound] the Hepatic metastasis-free events [2] was 0%.

With “AVASTIN®: anti-VEGF antibody bevacizumab (Genentech) [reference compound]” the “tumor weight reduced by, compared to vehicle control” value [1] was 63%.

For “TFPI: reported with rNAPc2 by Hembrough et al. to decrease tumor growth in mouse models [reference compound]”, the “growth of lung carcinoma tumors and melanoma tumors” value [3] is listed as “allegedly decrease the growth”.

B1: NAP5: 77-amino acid NAP protein (SEQ ID NO: 1) originally isolated from the hookworm Ancylostoma caninum (protein, listed as Ancylostoma caninum)
chain: KAYPECGENEWLDDCGTQKPCEAKCNEEPPEEEDPICRSRGCLLPPACVCKDGFYRDTVIGDCVREEECDQHEIIHV
In the case of B1, the “selective inhibition of Factor Xa” value [4] is listed as “selective inhibition of Factor Xa”.

B2: rNAPc2: recombinant protein of the NAP family, single chain, non-glycosylated 85 amino acid protein (SEQ ID NO: 3) (protein, listed as Ancylostoma caninum)
chain: KATMQCGENEKYDSCGSKECDKKCKYDGVEEEDDEEPNVPCLVRVCHQDCVCEEGFYRNKDDKCVSAEDCELDNMDFIYPGTRN
In the case of B2, the “growth of lung carcinoma tumors and melanoma tumors” value [3] is given as “allegedly decrease the growth”, the inhibition of angiogenesis [5] is given as “potent inhibitor of angiogenesis” and the “selective inhibition of the fVIIa/TF complex” value [6] is given as “selective inhibition of the fVIIa/TF complex”. The “formation of intestinal adenomas and adenocarcinomas” value ([7]; Apc^Min/+ mice, 100 μg/kg daily IP, long-term administration (10 to 11 weeks), analysis on week 16) was “suppressed formation of intestinal adenomas and adenocarcinomas” and the “tolerability (major hemorrhage or other adverse effects)” value ([7]; dosing regimens used in these studies, recipient mice) was “well-tolerated up to a three month period”.

B3: rNAPc2/pro: recombinant protein having the amino acid sequence of rNAPc2 modified to add a proline residue to the C-terminus (SEQ ID NO: 4) (protein, listed as Ancylostoma caninum)
chain: KATMQCGENEKYDSCGSKECDKKCKYDGVEEEDDEEPNVPCLVRVCHQDCVCEEGFYRNKDDKCVSAEDCELDNMDFIYPGTRNP
For B3, the “tumor weight reduced by, compared to vehicle control” value [1] was 31%, the “tolerability (hemorrhage or other adverse effects)” value ([1]; doses and dosing regimens of rNAPc2/pro used in the murine model of colorectal cancer) was “well tolerated by the recipient mice without major complications of hemorrhage or other adverse effects” and the “Number of mice with no observable lung surface metastases” value ([8]; 10 μg/kg/day, day 11) was 1. The “Number of mice with no observable lung surface metastases” value ([8]; 30 μg/kg/day, day 11) was 0, the “Number of mice with no observable lung surface metastases” value ([8]; 100 μg/kg/day, day 11) was 1 and the “Number of mice with no observable lung surface metastases” value ([8]; 300 μg/kg/day, day 11) was 1. The “Number of mice with no observable lung surface metastases” value ([8]; 1 mg/kg/day, day 11) was 0, the “local hemorrhage in internal organs” value ([8]; 2.5 mg/kg rNAPc2/pro, 1.5 mg/kg LOVENOX, some of the mice) was “some local hemorrhage was noticed in internal organs” and the “Number of mice with no observable lung surface metastases” value ([8]; 2.5 mg/kg/day, day 11) was 1. The “number of lung surface metastases” value ([8]; compared to saline control mice, dose-dependent (10 μg/kg/day to 2.5 mg/kg/day), day 11, FIG. 8) was “reduced the number of lung surface metastases”, the lung mass ([8]; compared to saline control mice, dose-dependent, day 11, FIG. 9) was “reduced lung mass” and the “dose well-tolerated with no hemorrhage-related mortality” value ([8]; mice, 11 days of treatment) was “up to 2.5 mg/kg/day”. For the same molecule, the “number of liver surface metastases” value ([2]; 300 μg/kg daily IP for 28 days, compared to vehicle control mice, day 42, FIG. 10) was “reduced the number of liver surface metastases”, the liver mass ([2]; 300 μg/kg daily IP for 28 days, compared to vehicle control mice, day 42, FIG. 11) was “reduced liver mass” and the Hepatic metastasis-free events [2] was 0%. For the same molecule, the “effect with CPT-11 in inhibiting hepatic metastases” value ([2]; rNAPc2/pro 300 μg/kg daily IP in combination with CPT-11 100 mg/kg once-weekly IP) was “synergistic effect” and the “selective inhibition of the fVIIa/TF complex” value [6] was “selective inhibition of the fVIIa/TF complex”.

B4: NAP6: 75-amino acid NAP protein (SEQ ID NO: 2) originally isolated from the hookworm Ancylostoma caninum (protein, listed as Ancylostoma caninum)
chain: LAYPECGENEWLDVCGTKKPCEAKCSEEEEEDPICRSFSCPGPAACVCEDGFYRDTVIGDCVKEEECDQHEIIHV
For B4, the “selective inhibition of Factor Xa” value [4] is listed as “selective inhibition of Factor Xa”.
